Test results taken from patent publication US20230406921A1 (MABWELL SHANGHAI BIOSCIENCE, published 2023).
Numbering of substitutions follows the chain as printed.

Assays:
[1] = target: T1, CD47 on the surface of tumor cells (human, UniProt Q08722 19-323); assay: FACS on CCRF cells
T1 construct: whole, on cells; Same protein as m4; also called CD47 antigen on the surface of U937 and CCRF cells; SKOV-3

[2] = target: T2, recombinant antigen of the extracellular region of CD47 (Sino Biological, Cat: 12283-H08H) (human, UniProt Q08722 19-139); assay: Fortebio Octet QKe, antibody on AHC sensor, CD47 100 nM in solution
T2 construct: extracellular domain; also called recombinant CD47 extracellular region; CD47 recombinant protein
Description: The affinity of the antibody was determined by Octet QKe instrument of Fortebio Company. […] The kinetic parameters were determined.

[3] = target: T1, CD47 on the surface of tumor cells; assay: FACS blocking assay on CCRF cells; blocked ligand FITC-labelled rhSIRPα-Fc
[4] = target: T2, recombinant antigen of the …; assay: Fortebio BLI, recombinant CD47 extracellular region
[5] = target: T1, CD47 on the surface of tumor cells; assay: FACS blocking assay on U937 cells; blocked ligand FITC-labelled rhSIRPα-Fc
[6] = target: T1, CD47 on the surface of tumor cells; assay: FACS on U937 cells
CD47-His = target: T3, CD47-His (human, UniProt Q08722 19-139, limits assumed); assay: Fortebio BLI
T3 construct: not shown: His tag

human PD-L1 on cells = target: T4, human PD-L1 on cells (human, UniProt Q9NZQ7 19-290); assay: flow cytometry on A431 cells
T4 construct: whole, on cells; also called MC38-hPD-L1/hCD47 cells; A431 cells

[7] = target: T1, CD47 on the surface of tumor cells; assay: flow cytometry on A431 cells
[8] = target: T2, recombinant antigen of the …; assay: Fortebio BLI, antibody on AHC sensor, CD47 extracellular region 100 nM;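 also: antibody held on the sensor through anti-human Fc capture, CD47 antigen in solution, association and dissociation phases each lasting 300 s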
Description: (§1) The affinity between the obtained mutant antibody and the CD47 recombinant protein was determined by Fortebio. The antibody was immobilized on the surface of a sensor with the anti-human Fc capture antibody (AHC Sensor), and reacted with the recombinant antigen of the extracellular region of CD47 (with a working concentration of 100 nM) in the liquid phase. The duration for binding and dissociation was both 300 seconds. The kinetic parameters were determined.

[9] = target: T2, recombinant antigen of the …; assay: Fortebio BLI, antibody on AHC sensor, CD47 extracellular region 100 nM; Table 6 (heavy chain mutant series);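 as to koff: antibody held on the sensor through anti-human Fc capture, CD47 antigen in solution, association and dissociation phases each lasting 300 s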;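 as to kon: antibody held on the sensor through anti-human Fc capture, CD47 antigen in solution, association and dissociation phases each lasting 300 s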
Description: as §1

[10] = target: T1, CD47 on the surface of tumor cells; assay: FACS, tumor cells, 1 nM
Description: (§2) The difference between the binding of the mutant to CD47 on the surface of tumor cells and CD47 on the surface of red blood cells was evaluated.

[11] = target: T5, CD47 on the surface of human red blood cells (human, UniProt Q08722 19-323); assay: FACS, hRBC, 500 nM
T5 construct: whole, on cells; Same protein as m3, on red blood cells; also called hRBC; RBC
Description: as §2

T4 sequence (Q9NZQ7 19-290): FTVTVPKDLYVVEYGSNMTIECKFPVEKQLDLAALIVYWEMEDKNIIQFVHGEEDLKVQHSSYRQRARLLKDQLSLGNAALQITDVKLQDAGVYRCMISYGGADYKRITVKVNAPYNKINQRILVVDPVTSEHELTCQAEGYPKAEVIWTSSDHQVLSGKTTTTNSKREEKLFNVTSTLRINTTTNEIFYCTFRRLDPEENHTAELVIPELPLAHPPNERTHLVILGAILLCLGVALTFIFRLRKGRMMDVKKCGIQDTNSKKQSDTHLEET

B1: humanized 140 (hz140) (antibody, human IgG4 S228P, kappa, V domains shown)
VH: QVQLVQSGAEVKKPGASVKVSCKASGYKFTNYVMHWVRQAPGQRLEWMGYINPYNDGIKYNEKFTGRVTITRDTSASTAYMELSSLRSEDTAVYYCAREGDFYANYGRLGFAYWGQGTLVTVSS
VL: DIQMTQSPSSLSASVGDRVTITCRASQDITNYLNWYQQKPGKAPKLLIYYTSRLHSGVPSRFSGSGSGTDYTFTISSLQPEDIATYFCQQGDTFPRTFGGGTKVEIKR
notes: also called anti-CD47 monoclonal antibody; anti-CD47 sidearm monoclonal antibody
EC50 (read off the curve) [1]: ~0.06 µg/mL
Kd [2]: 1.89 nM
koff [2]: 0.000933 s⁻¹
kon [2]: 493000 M⁻¹ s⁻¹
IC50 (read off the curve) [3]: ~0.3 µg/mL
Kd [4]: 0.688 nM
koff [4]: 0.00022 s⁻¹
kon [4]: 320000 M⁻¹ s⁻¹
IC50 (read off the curve) [5]: ~0.3 µg/mL
EC50 (read off the curve) [6]: ~0.2 µg/mL
Kd (CD47-His): 1.5 nM
koff (CD47-His): 0.00037 s⁻¹
kon (CD47-His): 247000 M⁻¹ s⁻¹

B2: anti-PD-L1 monoclonal antibody (hz182) (antibody, human IgG4 S228P, kappa, V domains shown)
VH: QLVQSGAEVKKPGATVKISCKVSGFNIKDIYMHWVQQAPGKGLEWMGRIDPANANTKYDPKFQDRVTITADTSTNTAYMELSSLRSEDTAVYYCASGQLGPLGFDYWGQGTTVTVSS
VL: B1 VL with T30S, I48L, F73L, I83F, D92A, T93G, F94R, R96Y
notes: also called humanized anti-human PD-L1 antibody; anti-PD-L sidearm monoclonal antibody
EC50 (read off the curve) (human PD-L1 on cells): ~0.1 nM

B3: 1F8 (antibody, human IgG4, V domains shown)
VH: KVQLVESGGGLVKPGGSLRLSCAASGFTFSNAWMNWVRQAPGKGLEWVGRIKRKTDGETTDYAAPVKGRFSISRDDSKNTLYLQMNSLKTEDTAVYYCAGSNRAFDIWGQGTMVTVSA
VL: DIVMTQSPDSLAVSLGERATINCKSSQSVLYSSNNRNYLAWYQQKPGQPPKLLINQASTRASGVPDRFSGSGSGTEFTLIISSLHAEDVAIYYCQQYYTPPLAFGGGTKLEIK
notes: also called anti-CD47 antibody 1F8; control anti-CD47 monoclonal antibody 1F8
EC50 (read off the curve) [7]: 2 to 3 nM

B4: hz140-H/hz182-L (antibody, V domains shown)
VH: B1 VH
VL: DIQMTQSPSSLSASVGDRVTITCRASQDISNYLNWYQQKPGKAPKLLLYYTSRLHSGVPSRFSGSGSGTDYTLTISSLQPEDFATYFCQQGAGRPYTFGGGTKVEIK
notes: Hybrid antibody: heavy chain of hz140 with the light chain of hz182
Kd [2]: 7.03 nM
koff [2]: 0.00108 s⁻¹
kon [2]: 154000 M⁻¹ s⁻¹
koff [8]: 0.000226 s⁻¹
kon [8]: 315000 M⁻¹ s⁻¹
Kd [9]: 0.719 nM

B5: h140Hm13/h140L (antibody, V domains shown)
VH: B1 VH with Q1E, H35S, G57A
VL: B4 VL with S30T, L48I, L73F, F83I, A92D, G93T, R94F, Y96R
notes: Heavy chain mutant 140Hm13 with the unmutated light chain of hz140
FACS (MFI) [10]: 102000 MFI
FACS (MFI) [11]: 27400 MFI

B6: h140Hm13/h140Lm2 (antibody, V domains shown)
VH: B1 VH with Q1E, H35S, G57A
VL: B4 VL with S30T, L73F, F83I, A92D, G93T, R94F, Y96R
FACS (MFI) [11]: 26100 MFI

B7: h140Hm13/h140Lm3 (antibody, V domains shown)
VH: B1 VH with Q1E, H35S, G57A
VL: B4 VL with S30T, L48I, F83I, A92D, G93T, R94F, Y96R
FACS (MFI) [11]: 30600 MFI

B8: h140Hm13/h140Lm4 (antibody, V domains shown)
VH: B1 VH with Q1E, H35S, G57A
VL: B4 VL with S30T, L48I, L73F, A92D, G93T, R94F, Y96R
FACS (MFI) [11]: 24200 MFI

B9: h140Hm13/h140Lm5 (antibody, V domains shown)
VH: B1 VH with Q1E, H35S, G57A
VL: B4 VL with S30T, L48I, L73F, F83I, G93T, R94F, Y96R
FACS (MFI) [11]: 27300 MFI

B10: h140Hm13/h140Lm6 (antibody, V domains shown)
VH: B1 VH with Q1E, H35S, G57A
VL: B4 VL with S30T, L48I, L73F, F83I, A92D, R94F, Y96R
FACS (MFI) [11]: 27200 MFI

B11: h140Hm13/h140Lm7 (antibody, V domains shown)
VH: B1 VH with Q1E, H35S, G57A
VL: B4 VL with S30T, L48I, L73F, F83I, A92D, G93T, Y96R
FACS (MFI) [10]: 40200 MFI
FACS (MFI) [11]: 16700 MFI

B12: h140Hm13/h140Lm9 (antibody, V domains shown)
VH: B1 VH with Q1E, H35S, G57A
VL: B4 VL with S30T, L48I, L73F, F83I, Y96R
notes: also called h140Lmut9; mut9
FACS (MFI) [10]: 34600 MFI
FACS (MFI) [11]: 17700 MFI
